Drawing on paper PMC6186785, “Discovery of Bacterial Deaminases That Convert 5-Fluoroisocytosine Into 5-Fluorouracil” (Frontiers in Microbiology, 2018), this text covers Km and kcat for two proteins.

A word on the Km: it is the concentration of substrate that gives half-maximal velocity. Usually kcat stands for the number of substrate molecules converted per active site and unit of time at saturation.

Holding throughout (assay): purified protein
Substrate in series [1]: Nc1ncc(F)c(=O)[nH]1
The format is biochemical, uncultured Pseudomonas sp. The note with it: 50 mM Tris-HCl pH 8.0, 21 °C, sentence prints 'isocytosine', evident slip for 5-fluoroisocytosine (second URA3 set, after Vcz 5-fluoroisocytosine).

Substrate in series [2]: Nc1nccc(O)n1
The note with it: 50 mM Tris-HCl pH 8.0, 21 °C, substrate range 5–700 μM.

Substrate in series [3]: Nc1ncc(F)c(=O)[nH]1
The format is biochemical, uncultured Hafnia sp. Particulars: 50 mM Tris-HCl pH 8.0, 21 °C.

B1: URA3 deaminase (uncultured Pseudomonas sp.) (protein)
chain: MAKTLLVKNAELLVTMDGQRREIRQGGMFIEDNRIVQVGPAAELPQTADEVLDLKGKVVIPGLVNTHHHMYQSLTRVVPAAQDGELFNWLTNLYPIWARLTPEMIQVSTQTAMAELILSGCTTSSDHLYIYPNGCKLDDSIHAAGEIGMRFHAARGSMSVGRSQGGLPPDSVVEKEADILKESQRLIEDYHDAAHGSMLRVVVAPCSPFSVSRDLMREAAVLARNYGVSLHTHLAENVNDIAYSREKFGMTPAEYAEDLGWVGHDVWHAHCVQLDEHGIELFARTGTGVAHCPCSNMRLASGIAPVRRMRDAGVPVGLGVDGSASNDGASMIGEVRQALLLQRVGFGPDAMTAREALEIATLGGAKVLNRDDIGALAPGMVADFVAFDLNHIAYAGALHDPLAALVFCTPTHVSTSVINGKVVVRDGQLVTVDLPRVLERHNQLARQLVMGE
notes: full-length ORF, C-terminal 6xHis (pET21b NdeI/XhoI), E. coli BL21(DE3); primers encode N-terminus MAKTLL and C-terminus VMGE before LE-tag
Take B1: in series [1], the Km worked out at 1330 ± 305 µM and the kcat was 0.02 ± 0.003 s⁻¹. Besides, in series [2], the Km was 1085 ± 120 µM and the kcat is 2.00 ± 0.15 s⁻¹.

B2: Vcz deaminase (uncultured Hafnia sp.; H2D) (protein)
chain: MDKRTLLFKNAELLVTMDDERREIRGGCLLVEGNRIVAVGGDELCAAPADEEIDLRGHIVIPGLINTHHHMFQSLTRVIPDAQDGELFDWLNNLYPIWAGLTPEMIRISTQTAMAELMLSGCTTSSDHLYVYPNGCRLDDSIDGAREIGMRFHACRGSMSVGRSKGGLPPDELVENEQAILEDSLRLIHSYHDAQRYSMLRIALAPCSPFSVSRELMVKTAQMAREQGVSLHTHLAENDSDVSYSQTHFGMTPAQYAEDLGWVGSDVWHAHCVKLDRAGISLFARTGTGVAHCPCSNMRLASGIAPIRAMLDEGVSVGLGVDGSASNDAGNMIAETRQAMLLQRVGFGPDAMNARQALEIATRGGAKVLNRDDIGYLATGMAADFVAFDLNTLNLAGAKHDPLAALVFCTPGNVAFSVINGQVVIREGVLQTIDLPSVVQQHNRLACLLVNRHRL
notes: full-length ORF, C-terminal 6xHis (pET28a NcoI/XhoI), E. coli BL21(DE3); primers encode N-terminus MDKRTL and C-terminus NRHRL before LE-tag
Turning to B2, in series [3], the Km came out at 1270 ± 128 µM and the kcat came to 0.1 ± 0.007 s⁻¹. Besides, in series [2], the Km came out at 1860 ± 45 µM and the kcat was 1.64 ± 0.06 s⁻¹.
